Laboratory results from patent publication US20110091994A1, “Methods for Screening Compounds for Treating and/or Preventing an Hepatitis C Virus Infection” (priority 2008, published 2011).
Like-named read-outs stand apart in the source and are kept apart here.

Columns and labels:
HCV RNA replication = HCV RNA replication under bile acids / FXR ligands; type: cell-based, Hepatitis C virus
[1] = molecular target: T1, GST-tagged viral proteins (Hepatitis C virus genotype 1b, UniProt Q9WMX2); assay: Validation by co-affinity purification (CoAP); type: binding, HCV genotype 1b, isolate con1; design: key: +: IMAP validation; −: not validated; NA: non assayable due to default of protein expression or to cellular protein directly interacting with GST
T1 construct: expressed in transfected cells; host or cells: HEK-293T
Description: C. Validation of Y2H interactions by co-affinity purification assay. Nine co-AP positive assays are shown, representing: NS5A-SORBS2 (1), NS3-CALCOCO2 (2), NS5A-BIN1 (3), NS5A-MOBK1B (4), NS5A-EFEMP1 (5), NS3-PSMB9 and NS5A-PSMB9 (6), NS5A-PPPIRI3L (7), NS3-RASAL2 (8). After pull-down with GST tagged viral baits (+) or with negative control GST alone (−), cellular preys are identified with anti-Flag antibody. Anti-GST antibody identifies either GST alone or GST-tagged viral baits. Expression of cellular preys in cell lysate is controlled by anti-Flag (bottom panel). […]
A random pool of 59 IMAP Y2H interactions was chosen for CoAP assays. Cellular ORFs (interacting domains found in Y2H screens) were cloned by recombinational cloning from a pool of human cDNA library or the MGC cDNA plasmids using KOD polymerase (Toyobo) into pDONR207 (Invitrogen). After validation by sequencing, these ORFs were transferred to pCi-neo-3xFLAG gateway-converted, and HCV ORFs were transferred into pDEST27 (GST fusion in N-term). HEK-293T cells were then co-transfected (JetPei, Polyplus) by each pair of plasmid encoding interacting proteins. Controls are GST alone against 3xFLAG-tagged preys. Two days after transfection, cells were harvested and lysed (0.5% NP-40, 20 mM Tris-HCl (pH 8.0), 180 mM NaCl, 1 mM EDTA, and complete protease inhibitor cocktail). Cell lysates were cleared by centrifugation for 20 min at 13,000 rpm at 4° C. and soluble protein complexes were purified using Glutathione Sepharose 4B beads (GE Healthcare). Beads were then washed extensively four times with lysis buffer and proteins were separated on SDS-PAGE and transferred to nitrocellulose membrane. GST-tagged viral proteins and 3xFLAG-tagged cellular proteins were detected using standard immunoblotting techniques using anti-GST (Covance) and anti-FLAG M2 (Sigma) monoclonal antibodies (21).

HCV proteins = molecular target: T2, HCV proteins (Hepatitis C virus genotype 1b, UniProt Q9WMX2); assay: Validation by Y2H pairwise matrices; type: binding;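 also: yeast two-hybrid pairwise tests of interactions first found in Y2H screens of HCV bait proteins against human cDNA libraries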
T2 construct: expressed in transfected cells

[2] = test system: HCV ORFs (Gal4-DB fusions); type: binding, HCV genotype 1b, isolate con1; conditions: human protein listed by gene symbol; the value names the HCV protein it interacts with
[3] = molecular target: T3, HCV ORFs (Gal4-DB fusions) (Hepatitis C virus genotype 1b, UniProt Q9WMX2); type: binding, HCV genotype 1b, isolate con1; conditions: human protein as prey
T3 construct: expressed in transfected cells; host or cells: Saccharomyces cerevisiae MAV203 (IMAP1) / AH109 (IMAP2)

[4] = validation of interaction with HCV protein NS3
[5] = interaction with HCV protein NS5A
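For IMAP Y2H IMAP1 (number of IST) in this document: yeast two-hybrid screens using HCV genotype 1b proteins fused to Gal4-DB as baits against prey cDNA libraries from human spleen and foetal brain, IMAP1 via transformation and IMAP2 via mating.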
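For IMAP Y2H IMAP2 (number of IST) in this document: yeast two-hybrid screens using HCV genotype 1b proteins fused to Gal4-DB as baits against prey cDNA libraries from human spleen and foetal brain, IMAP1 via transformation and IMAP2 via mating.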
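For Interaction with viral protein in this document: yeast two-hybrid screens using HCV genotype 1b proteins fused to Gal4-DB as baits against prey cDNA libraries from human spleen and foetal brain, IMAP1 via transformation and IMAP2 via mating.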

C/C=C1\C(=O)C[C@H]2[C@@H]3CCC4=CC(=O)CC[C@]4(C)[C@H]3CC[C@]12C [guggulsterone]
effect on the up-regulation of HCV replication induced by BAs (HCV RNA replication; FXR antagonism, in presence of BAs): blocked the up-regulation induced by BAs | inhibition of basal level of HCV replication (HCV RNA replication; guggulsterone alone): tenfold

ACTN2
CoAP [1, 4]: − | Y2H matrices (HCV proteins; [4]): + | Interaction with viral protein [2]: NS3 | IMAP Y2H IMAP1 (number of IST) ([3]; HCV protein NS3 as bait): 10 | IMAP Y2H IMAP2 (number of IST) ([3]; HCV protein NS3 as bait): 6

CALCOCO2
CoAP [1, 4]: + | Y2H matrices (HCV proteins; [4]): + | Interaction with viral protein [2]: NS3 | IMAP Y2H IMAP1 (number of IST) ([3]; HCV protein NS3 as bait): 5 | IMAP Y2H IMAP2 (number of IST) ([3]; HCV protein NS3 as bait): 2

KPNA1
CoAP [1, 4]: + | Interaction with viral protein [2]: NS3 | IMAP Y2H IMAP2 (number of IST) ([3]; HCV protein NS3 as bait): 8

PPP1R13L
CoAP [1, 5]: + | Interaction with viral protein [2]: NS5A | IMAP Y2H IMAP2 (number of IST) ([3]; HCV protein NS5A as bait): 2

SMURF2
CoAP [1, 4]: + | Interaction with viral protein [2]: NS3 and NS2 | IMAP Y2H IMAP2 (number of IST) ([3]; HCV protein NS3 as bait): 4

UBQLN1
Y2H matrices (HCV proteins; interaction with HCV protein p7): + | Y2H matrices (HCV proteins; validation of interaction with HCV protein NS4A): + | Interaction with viral protein [2]: NS4A | IMAP Y2H IMAP1 (number of IST) ([3]; HCV protein NS4A as bait): 2 | IMAP Y2H IMAP1 (number of IST) ([3]; HCV protein p7 as bait): 3

VCAN
Y2H matrices (HCV proteins; [4]): + | Interaction with viral protein [2]: NS3 | IMAP Y2H IMAP1 (number of IST) ([3]; HCV protein NS3 as bait): 1

VIM
Y2H matrices (HCV proteins; [4]): + | Interaction with viral protein [2]: NS3 | IMAP Y2H IMAP1 (number of IST) ([3]; HCV protein NS3 as bait): 32

VWF
Y2H matrices (HCV proteins; validation of interaction with HCV protein CORE): + | Y2H matrices (HCV proteins; [4]): + | Interaction with viral protein [2]: NS3 and CORE | IMAP Y2H IMAP1 (number of IST) ([3]; HCV protein CORE as bait): 2 | IMAP Y2H IMAP1 (number of IST) ([3]; HCV protein NS3 as bait): 26

ZNF646
CoAP [1, 5]: − | IMAP Y2H IMAP2 (number of IST) ([3]; HCV protein NS5A as bait): 2

deoxycholate
up-regulation of HCV RNA replication (HCV RNA replication): more than tenfold
